For assay [1], the target named is T1, PTPRD G203E K204E variant extracellular domain (human, UniProt P23468 21-1265).
T1 construct: extracellular domain; also called G203E/K204E double mutant; IG2 mutant
T1 sequence (looked up): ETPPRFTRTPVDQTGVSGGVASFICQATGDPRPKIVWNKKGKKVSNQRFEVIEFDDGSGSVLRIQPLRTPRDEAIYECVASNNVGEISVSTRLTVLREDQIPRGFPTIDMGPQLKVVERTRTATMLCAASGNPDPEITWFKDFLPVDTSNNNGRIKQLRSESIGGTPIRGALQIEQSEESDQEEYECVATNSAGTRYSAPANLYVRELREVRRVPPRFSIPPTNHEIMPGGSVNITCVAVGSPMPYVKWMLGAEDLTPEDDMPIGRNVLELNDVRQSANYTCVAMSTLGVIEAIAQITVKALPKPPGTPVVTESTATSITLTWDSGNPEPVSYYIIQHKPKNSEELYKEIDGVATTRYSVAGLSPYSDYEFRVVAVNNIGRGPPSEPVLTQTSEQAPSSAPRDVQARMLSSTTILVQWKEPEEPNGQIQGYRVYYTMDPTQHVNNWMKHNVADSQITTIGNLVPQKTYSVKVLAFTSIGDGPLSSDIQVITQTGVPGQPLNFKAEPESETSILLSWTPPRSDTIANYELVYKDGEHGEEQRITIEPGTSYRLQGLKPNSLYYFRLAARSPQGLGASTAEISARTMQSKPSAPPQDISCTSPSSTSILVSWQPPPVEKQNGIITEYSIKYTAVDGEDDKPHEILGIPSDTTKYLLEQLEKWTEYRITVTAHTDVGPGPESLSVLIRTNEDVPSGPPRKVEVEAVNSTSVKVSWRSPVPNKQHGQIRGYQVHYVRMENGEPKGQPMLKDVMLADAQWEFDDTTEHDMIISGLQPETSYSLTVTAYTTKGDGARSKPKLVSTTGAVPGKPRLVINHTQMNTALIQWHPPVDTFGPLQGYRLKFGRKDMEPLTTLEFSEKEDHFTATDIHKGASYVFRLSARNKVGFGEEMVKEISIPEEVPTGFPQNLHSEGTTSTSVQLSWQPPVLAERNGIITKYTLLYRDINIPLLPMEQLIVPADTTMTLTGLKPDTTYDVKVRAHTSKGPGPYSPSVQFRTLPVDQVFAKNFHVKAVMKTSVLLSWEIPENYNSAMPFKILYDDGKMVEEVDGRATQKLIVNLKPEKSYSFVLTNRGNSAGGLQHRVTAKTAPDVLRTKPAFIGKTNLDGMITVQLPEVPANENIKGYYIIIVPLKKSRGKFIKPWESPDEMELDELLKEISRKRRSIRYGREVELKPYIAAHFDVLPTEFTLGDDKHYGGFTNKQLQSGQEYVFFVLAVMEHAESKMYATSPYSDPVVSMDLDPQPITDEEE
Nature of the assay: extracellular interaction screen: pentameric PTPRD variant ECD on ECD-Fc prey (FIG. 5L).

In assay [2] the target is T2, PTPRT expressed on cells (human, UniProt O14522 26-1441).
T2 construct: whole, on cells
T2 sequence (looked up): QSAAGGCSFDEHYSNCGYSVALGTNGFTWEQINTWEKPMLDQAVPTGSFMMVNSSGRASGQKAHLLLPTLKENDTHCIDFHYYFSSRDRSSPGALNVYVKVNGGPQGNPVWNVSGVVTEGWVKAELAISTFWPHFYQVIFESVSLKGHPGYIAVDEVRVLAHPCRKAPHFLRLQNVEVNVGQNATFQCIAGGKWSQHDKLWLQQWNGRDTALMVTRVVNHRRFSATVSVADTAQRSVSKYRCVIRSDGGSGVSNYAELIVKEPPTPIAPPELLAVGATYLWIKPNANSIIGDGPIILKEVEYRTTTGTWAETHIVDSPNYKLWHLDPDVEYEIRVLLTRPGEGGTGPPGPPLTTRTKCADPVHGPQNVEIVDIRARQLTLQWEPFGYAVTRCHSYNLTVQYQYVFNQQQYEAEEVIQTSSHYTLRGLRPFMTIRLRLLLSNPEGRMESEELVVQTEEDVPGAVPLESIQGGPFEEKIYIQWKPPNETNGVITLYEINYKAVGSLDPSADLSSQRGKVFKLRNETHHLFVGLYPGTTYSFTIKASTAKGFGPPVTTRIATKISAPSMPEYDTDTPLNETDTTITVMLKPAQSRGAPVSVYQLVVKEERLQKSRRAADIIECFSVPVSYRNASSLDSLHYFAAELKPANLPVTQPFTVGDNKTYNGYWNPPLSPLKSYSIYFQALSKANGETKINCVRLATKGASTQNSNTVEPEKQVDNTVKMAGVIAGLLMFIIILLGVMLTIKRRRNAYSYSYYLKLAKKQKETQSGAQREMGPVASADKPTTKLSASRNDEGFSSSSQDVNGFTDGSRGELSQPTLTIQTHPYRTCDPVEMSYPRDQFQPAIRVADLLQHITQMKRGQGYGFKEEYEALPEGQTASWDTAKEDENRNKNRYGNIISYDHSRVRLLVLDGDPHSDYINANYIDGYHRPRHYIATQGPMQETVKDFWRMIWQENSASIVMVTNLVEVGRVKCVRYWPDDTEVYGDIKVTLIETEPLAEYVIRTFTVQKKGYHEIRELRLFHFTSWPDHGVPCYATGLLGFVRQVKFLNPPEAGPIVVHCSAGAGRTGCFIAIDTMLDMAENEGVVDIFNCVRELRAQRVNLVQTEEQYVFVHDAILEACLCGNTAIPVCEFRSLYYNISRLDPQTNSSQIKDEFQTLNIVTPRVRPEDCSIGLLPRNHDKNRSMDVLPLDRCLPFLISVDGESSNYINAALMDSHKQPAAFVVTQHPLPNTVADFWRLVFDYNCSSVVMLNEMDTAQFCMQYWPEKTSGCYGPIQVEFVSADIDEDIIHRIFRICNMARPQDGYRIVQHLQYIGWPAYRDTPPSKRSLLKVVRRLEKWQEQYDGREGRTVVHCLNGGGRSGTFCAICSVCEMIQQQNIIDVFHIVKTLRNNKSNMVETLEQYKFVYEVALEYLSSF
Nature of the assay: cell surface interaction assay: query ECD tetramerised with fluorescent streptavidin on transfected cells, immunofluorescence. The text has this: (§1) FIG. 3H is a schematic showing the design of the cell surface interaction assay.
(§2) Experiments shown are representative of two independent assays. […] Scale bar=50 μm.

Assay [3] addresses T3, PTPRZ1 expressed on cells (human, UniProt P23471 25-2315).
T3 construct: whole, on cells
Described as above.
From the text: as §1, §2

Assay [4] concerns the target T4, PTPRG expressed on cells (human, UniProt P23470 20-1445).
T4 construct: whole, on cells
The assay is described as above.
From the text: as §1, §2

T3 sequence (P23471 25-2315): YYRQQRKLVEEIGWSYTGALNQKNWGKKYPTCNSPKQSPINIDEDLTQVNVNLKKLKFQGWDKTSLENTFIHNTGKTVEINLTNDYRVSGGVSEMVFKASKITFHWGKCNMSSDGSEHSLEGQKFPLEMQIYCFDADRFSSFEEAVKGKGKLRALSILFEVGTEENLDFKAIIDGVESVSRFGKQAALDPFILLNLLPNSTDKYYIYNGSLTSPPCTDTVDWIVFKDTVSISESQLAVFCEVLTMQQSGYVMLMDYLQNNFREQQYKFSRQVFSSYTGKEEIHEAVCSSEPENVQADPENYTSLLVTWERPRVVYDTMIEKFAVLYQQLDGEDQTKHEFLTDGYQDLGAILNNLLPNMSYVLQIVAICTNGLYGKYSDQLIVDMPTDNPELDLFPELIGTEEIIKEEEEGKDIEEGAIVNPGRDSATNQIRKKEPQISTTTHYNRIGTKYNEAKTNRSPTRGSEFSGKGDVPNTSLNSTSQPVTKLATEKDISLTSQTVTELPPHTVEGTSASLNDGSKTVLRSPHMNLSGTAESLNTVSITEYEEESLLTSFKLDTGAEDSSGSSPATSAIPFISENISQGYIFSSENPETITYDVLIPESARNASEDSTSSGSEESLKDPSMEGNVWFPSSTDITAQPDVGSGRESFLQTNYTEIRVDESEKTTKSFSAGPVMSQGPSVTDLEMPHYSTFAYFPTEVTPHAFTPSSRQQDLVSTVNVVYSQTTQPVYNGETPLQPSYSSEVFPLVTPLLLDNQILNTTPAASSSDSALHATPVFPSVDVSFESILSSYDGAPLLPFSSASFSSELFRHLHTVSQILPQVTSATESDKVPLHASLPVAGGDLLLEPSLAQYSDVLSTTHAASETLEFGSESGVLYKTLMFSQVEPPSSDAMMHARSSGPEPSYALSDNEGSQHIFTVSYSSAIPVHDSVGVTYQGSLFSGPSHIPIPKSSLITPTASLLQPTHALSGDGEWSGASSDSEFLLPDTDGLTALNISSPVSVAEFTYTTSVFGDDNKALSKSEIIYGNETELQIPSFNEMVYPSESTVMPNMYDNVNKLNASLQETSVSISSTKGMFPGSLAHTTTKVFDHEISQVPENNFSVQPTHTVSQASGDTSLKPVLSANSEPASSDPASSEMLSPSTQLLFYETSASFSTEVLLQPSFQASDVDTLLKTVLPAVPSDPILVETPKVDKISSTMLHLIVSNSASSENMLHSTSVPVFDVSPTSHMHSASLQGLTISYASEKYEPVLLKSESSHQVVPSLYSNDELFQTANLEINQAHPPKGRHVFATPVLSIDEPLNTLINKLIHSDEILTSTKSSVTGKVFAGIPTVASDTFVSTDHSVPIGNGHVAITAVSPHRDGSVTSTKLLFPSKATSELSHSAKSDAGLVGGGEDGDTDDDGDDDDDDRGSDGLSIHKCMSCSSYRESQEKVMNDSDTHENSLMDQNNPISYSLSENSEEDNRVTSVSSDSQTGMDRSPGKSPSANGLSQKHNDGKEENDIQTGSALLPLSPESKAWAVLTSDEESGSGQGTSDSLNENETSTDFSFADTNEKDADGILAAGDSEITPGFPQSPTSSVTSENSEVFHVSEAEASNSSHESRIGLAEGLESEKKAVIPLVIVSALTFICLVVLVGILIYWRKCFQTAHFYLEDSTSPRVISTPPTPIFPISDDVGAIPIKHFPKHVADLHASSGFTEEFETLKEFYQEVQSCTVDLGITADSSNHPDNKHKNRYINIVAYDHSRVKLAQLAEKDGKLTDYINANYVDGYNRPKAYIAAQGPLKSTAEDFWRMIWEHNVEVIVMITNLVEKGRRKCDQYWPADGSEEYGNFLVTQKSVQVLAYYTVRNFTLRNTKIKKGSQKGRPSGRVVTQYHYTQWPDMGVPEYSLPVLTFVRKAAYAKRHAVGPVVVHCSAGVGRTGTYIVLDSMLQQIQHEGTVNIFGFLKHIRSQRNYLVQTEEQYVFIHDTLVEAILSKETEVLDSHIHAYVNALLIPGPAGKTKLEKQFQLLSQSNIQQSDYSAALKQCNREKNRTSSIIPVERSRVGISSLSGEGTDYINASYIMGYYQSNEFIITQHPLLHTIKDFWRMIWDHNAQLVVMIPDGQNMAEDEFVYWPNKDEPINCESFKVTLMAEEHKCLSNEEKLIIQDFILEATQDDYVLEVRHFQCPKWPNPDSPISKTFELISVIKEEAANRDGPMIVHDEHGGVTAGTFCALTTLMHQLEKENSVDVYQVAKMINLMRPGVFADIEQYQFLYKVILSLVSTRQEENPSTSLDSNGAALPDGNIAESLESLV
T4 sequence (P23470 20-1445): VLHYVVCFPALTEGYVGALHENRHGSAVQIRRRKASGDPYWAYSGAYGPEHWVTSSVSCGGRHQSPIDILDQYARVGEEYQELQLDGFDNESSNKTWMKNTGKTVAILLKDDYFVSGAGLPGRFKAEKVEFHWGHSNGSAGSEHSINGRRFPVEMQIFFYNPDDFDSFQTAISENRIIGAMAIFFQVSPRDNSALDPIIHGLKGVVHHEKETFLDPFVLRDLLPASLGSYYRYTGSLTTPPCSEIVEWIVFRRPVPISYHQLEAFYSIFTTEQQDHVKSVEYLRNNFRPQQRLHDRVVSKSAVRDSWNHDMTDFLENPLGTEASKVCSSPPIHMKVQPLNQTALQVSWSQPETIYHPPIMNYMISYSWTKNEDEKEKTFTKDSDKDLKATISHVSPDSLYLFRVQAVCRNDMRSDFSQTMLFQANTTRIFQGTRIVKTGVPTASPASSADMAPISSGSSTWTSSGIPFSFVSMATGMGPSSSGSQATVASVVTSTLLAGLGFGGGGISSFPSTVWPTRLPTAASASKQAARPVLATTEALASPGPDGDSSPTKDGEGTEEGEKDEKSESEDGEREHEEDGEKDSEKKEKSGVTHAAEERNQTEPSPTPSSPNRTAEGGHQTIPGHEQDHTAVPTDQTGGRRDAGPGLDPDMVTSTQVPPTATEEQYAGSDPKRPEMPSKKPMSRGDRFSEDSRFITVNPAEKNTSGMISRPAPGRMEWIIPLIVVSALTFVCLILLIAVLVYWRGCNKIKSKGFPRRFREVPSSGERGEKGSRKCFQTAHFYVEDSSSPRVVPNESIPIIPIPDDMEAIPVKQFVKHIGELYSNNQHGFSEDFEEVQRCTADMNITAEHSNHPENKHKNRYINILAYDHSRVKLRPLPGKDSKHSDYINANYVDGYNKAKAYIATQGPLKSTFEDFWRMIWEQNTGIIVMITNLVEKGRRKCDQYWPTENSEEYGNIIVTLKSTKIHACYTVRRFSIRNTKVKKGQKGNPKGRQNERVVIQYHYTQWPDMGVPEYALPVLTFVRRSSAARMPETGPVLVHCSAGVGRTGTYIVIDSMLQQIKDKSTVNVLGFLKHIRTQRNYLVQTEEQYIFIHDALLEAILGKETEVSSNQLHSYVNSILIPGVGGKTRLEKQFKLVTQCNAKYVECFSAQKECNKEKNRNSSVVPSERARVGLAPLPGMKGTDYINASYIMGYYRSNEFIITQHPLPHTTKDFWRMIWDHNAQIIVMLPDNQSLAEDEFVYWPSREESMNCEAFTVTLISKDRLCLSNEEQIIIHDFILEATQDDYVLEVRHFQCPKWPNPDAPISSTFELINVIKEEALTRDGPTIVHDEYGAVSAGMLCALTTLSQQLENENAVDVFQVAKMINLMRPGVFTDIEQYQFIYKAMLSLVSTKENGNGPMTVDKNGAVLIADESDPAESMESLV

B1: LRFN5 extracellular domain (receptor, human, UniProt Q96NI6 18-529, looked up)
chain: QICPKRCVCQILSPNLATLCAKKGLLFVPPNIDRRTVELRLADNFVTNIKRKDFANMTSLVDLTLSRNTISFITPHAFADLRNLRALHLNSNRLTKITNDMFSGLSNLHHLILNNNQLTLISSTAFDDVFALEELDLSYNNLETIPWDAVEKMVSLHTLSLDHNMIDNIPKGTFSHLHKMTRLDVTSNKLQKLPPDPLFQRAQVLATSGIISPSTFALSFGGNPLHCNCELLWLRRLSREDDLETCASPPLLTGRYFWSIPEEEFLCEPPLITRHTHEMRVLEGQRATLRCKARGDPEPAIHWISPEGKLISNATRSLVYDNGTLDILITTVKDTGAFTCIASNPAGEATQIVDLHIIKLPHLLNSTNHIHEPDPGSSDISTSTKSGSNTSSSNGDTKLSQDKIVVAEATSSTALLKFNFQRNIPGIRMFQIQYNGTYDDTLVYRMIPPTSKTFLVNNLAAGTMYDLCVLAIYDDGITSLTATRVVGCIQFTTEQDYVRCHFMQSQFLGGTM
notes: extracellular domain; Streptavidin tetramer in cell assay; ECD-Fc prey in the variant screen; also called LFRN5
Take B1: the binding result in assay [1], in assay [2], in assay [3] and in assay [4] was “no binding” in each case.

B2: LRRC4B extracellular domain (receptor, human, UniProt Q9NT99 36-576, looked up)
chain: AGGGGVAVTSAAGGGSPPATSCPVACSCSNQASRVICTRRDLAEVPASIPVNTRYLNLQENGIQVIRTDTFKHLRHLEILQLSKNLVRKIEVGAFNGLPSLNTLELFDNRLTTVPTQAFEYLSKLRELWLRNNPIESIPSYAFNRVPSLRRLDLGELKRLEYISEAAFEGLVNLRYLNLGMCNLKDIPNLTALVRLEELELSGNRLDLIRPGSFQGLTSLRKLWLMHAQVATIERNAFDDLKSLEELNLSHNNLMSLPHDLFTPLHRLERVHLNHNPWHCNCDVLWLSWWLKETVPSNTTCCARCHAPAGLKGRYIGELDQSHFTCYAPVIVEPPTDLNVTEGMAAELKCRTGTSMTSVNWLTPNGTLMTHGSYRVRISVLHDGTLNFTNVTVQDTGQYTCMVTNSAGNTTASATLNVSAVDPVAAGGTGSGGGGPGGSGGVGGGSGGYTYFTTVTVETLETQPGEEALQPRGTEKEPPGPTTDGVWGGGRPGDAAGPASSSTTAPAPRSSRPTEKAFTVPITDVTENALKDLDDVMKTTK
notes: extracellular domain; ECD-Fc prey; also called NGL-3; netrin-G ligand-3
With B2, the binding result in assay [1] was “no binding”.

For the origin of these results see patent publication US20220119490A1 (Genentech, published 2022).
